# From article PMC3923060, “HCV Core Residues Critical for Infectivity Are Also Involved in Core-NS5A Complex Formation” (PLoS ONE, 2014)
# T1: full-length NS5A-His (hepatitis C virus genotype 2a, strain …, UniProt Q99IB8 1977-2442)
# T1 construct: HCV nonstructural protein 5A (NS5A), genotype 2a strain JFH1, full-length; pET-UbCHis vector; also called recombinant NS5A-His; source: E. coli BL21(DE3)pCG1, purified as described previously [60]; not shown: His6, C-terminal, kept
# T1 sequence: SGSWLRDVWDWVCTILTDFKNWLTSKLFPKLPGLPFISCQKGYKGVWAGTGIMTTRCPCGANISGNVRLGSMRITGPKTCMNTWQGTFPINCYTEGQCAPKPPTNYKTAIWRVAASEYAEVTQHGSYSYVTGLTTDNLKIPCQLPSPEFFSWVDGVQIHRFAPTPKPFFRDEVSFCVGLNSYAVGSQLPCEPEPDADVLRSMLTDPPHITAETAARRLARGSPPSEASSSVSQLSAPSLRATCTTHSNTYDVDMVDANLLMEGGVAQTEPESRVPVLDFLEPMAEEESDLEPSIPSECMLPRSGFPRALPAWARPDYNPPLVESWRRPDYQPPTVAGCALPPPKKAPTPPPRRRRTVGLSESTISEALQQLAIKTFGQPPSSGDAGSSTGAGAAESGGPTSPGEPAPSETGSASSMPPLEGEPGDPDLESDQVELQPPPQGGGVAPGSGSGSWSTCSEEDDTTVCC
# Legend:
# [1] = molecular target: Core-Flag-R50A/K51A/R59A/R62A (hepatitis C virus genotype 2a, strain JFH1); assay: co-IP; Huh7.5.1 stable cell lines expressing full-length JFH1-Luc/Neo-Core-Flag genomes (wild type or core mutants); anti-Flag M2 agarose, eluted with 3xFLAG peptide; anti-NS5A blot, quantified by IR fluorescence, three experiments
# [2] = molecular target: 3xFlag-Core R62A (hepatitis C virus genotype 2a, strain JFH1); assay: co-IP; SGR-JFH1 (Huh7 subgenomic JFH1 replicon) cells transfected with 3xFlag-Core (wild type or mutants); anti-Flag M2 agarose, eluted with 3xFLAG peptide; anti-NS5A blot, quantified by IR fluorescence and normalised to precipitated core and expression, three experiments
# [3] = molecular target: 3xFlag-Core R50A (hepatitis C virus genotype 2a, strain JFH1); assay: as above
# [4] = molecular target: 3xFlag-Core R59A (hepatitis C virus genotype 2a, strain JFH1); assay: as above
# full-length NS5A-His [5] = molecular target: T1, full-length NS5A-His; assay: pull-down; 4 µg GST protein (bait) mixed with 10 µg NS5A protein in 100 µl binding buffer (50 mM Tris-HCl pH 7.5, 100 mM NaCl, 5 mM MgCl2, 10% glycerol, 0.5% Igepal CA-630, 1 mM DTT), 3 h at 4°C, then glutathione beads 1 h; Western blot (anti-NS5A, anti-Flag), in Figure 3 quantified by IR fluorescence; conditions: both partners purified
# full-length NS5A-His [6] = molecular target: T1, full-length NS5A-His; assay: pull-down; as a4, proteins treated with 1, 5 or 10 µM BMS-790052 for 30 min at 4°C; conditions: both partners purified
molecule,measurement,setting,value
NS5A from JFH1-Luc/Neo-Core-Flag expressing cells (from UniProt Q99IB8 1977-2442) (natural protein),percent reduction in NS5A binding against wild-type core,[1],85%
subgenomic NS5A (from UniProt Q99IB8 1977-2442) (natural protein),percent reduction in NS5A binding against wild type,[2],17%
same,percent reduction in NS5A binding against wild type,[3],8%
same,percent reduction in NS5A binding against wild type,[4],65%
"RGSRPSWGPTDPRHRSRNVGK (domain or fragment, HCV core protein, genotype 2a strain JFH1, residues 101-121 (basic domain 3); linker as in m1; also called BD3; BD3 (101-121); not shown: GST, N-terminal, kept; His6, C-terminal, kept) [GST-Core101-121-His]",binding result,full-length NS5A-His [5],binds
"GST-Core1-170-His (domain or fragment, HCV core protein, genotype 2a strain JFH1, residues 1-170 (domains D1 and D2); pGEX-2T; also called GST-Core-His; core (D1 and D2 domains); not shown: GST, N-terminal, kept; His6, C-terminal, kept) MSTNPKPQRKTKRNTNRRPEDVKFPGGGQIVGGVYLLPRRGPRLGVRTTRKTSERSQPRGRRQPIPKDRRSTGKAWGKPGRPWPLYGNEGLGWAGWLLSPRGSRPSWGPTDPRHRSRNVGKVIDTLTCGFADLMGYIPVVGAPLSGAARAVAHGVRVLEDGVNYATGNLP",binding result,full-length NS5A-His [6],binds
"PRRGPRLGVRTTRKTSERSQPRGRRQPIPKDRRSTGK (domain or fragment, HCV core protein, genotype 2a strain JFH1, residues 38-74 (basic domain 2); linker as in m1; also called GST-Core38-74-His; GST-BD2-His; not shown: GST, N-terminal, kept; His6, C-terminal, kept) [GST-Core-BD2-His]",binding result,full-length NS5A-His [5],binds
"STNPKPQRKTKRNTNRRPEDVK (domain or fragment, HCV core protein, genotype 2a strain JFH1, residues 2-23 (basic domain 1); linker as in m1; also called BD1; BD1 (2-23); not shown: GST, N-terminal, kept; His6, C-terminal, kept) [GST-Core2-23-His]",binding result,full-length NS5A-His [5],binds
